# Columns and labels:
# [1] = target: the molecule itself; assay: cross-linking; apo-proteins: 0.02% glutaric aldehyde, 16 h, 20 °C, protein 1 mg/mL, 20 mM Tricine-KOH pH 7.4, 50 mM KCl, 1 mM DTT, 1 mM EDTA; SDS-PAGE, Coomassie, densitometry; self-association
# Procedure, shortened: (§1)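 Recombinant human recoverin or its alanine-substituted forms, expressed in E. coli and purified, were freed of metal ions by gel filtration. They were crosslinked at 1.0 mg/mL with 0.02% glutaric aldehyde in 20 mM Tricine-KOH pH 7.4, 50 mM KCl, 1 mM DTT plus EDTA, MgCl2/EGTA or CaCl2, for 16 h at 20 °C. Products (5 µg/lane, 15% resolving SDS-PAGE) were Coomassie-stained, scanned and quantified in Quantity One as percentage per oligomer band.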
# [2] = target: the molecule itself; assay: cross-linking; Ca2+-loaded proteins: 0.02% glutaric aldehyde, 16 h, 20 °C, protein 1 mg/mL, 20 mM Tricine-KOH pH 7.4, 50 mM KCl, 1 mM DTT, 1 mM CaCl2; SDS-PAGE, Coomassie, densitometry; self-association
# Procedure, shortened: as §1
# [3] = target: the molecule itself; assay: cross-linking; Mg2+-loaded proteins: 0.02% glutaric aldehyde, 16 h, 20 °C, protein 1 mg/mL, 20 mM Tricine-KOH pH 7.4, 50 mM KCl, 1 mM DTT, 1 mM MgCl2, 1 mM EGTA; SDS-PAGE, Coomassie, densitometry; self-association
# Procedure, shortened: as §1
Protein,"Dimer 50 kDa, % [1] [%]","Monomer 20 kDa, % [1] [%]","Dimer 50 kDa, % [2] [%]","Monomer 20 kDa, % [2] [%]","Multimer 100–250 kDa, % [2] [%]","Trimer 70–100 kDa, % [2] [%]","Dimer 50 kDa, % [3] [%]","Monomer 20 kDa, % [3] [%]"
"recombinant wild type human recoverin (natural protein, UniProt P35243 1-200, looked up, myristoyl group at the N terminus (degree of myristoylation exceeded 89%), recoverin, human, UniProt P35243; cDNA from Y79 retinoblastoma cells, amplified with primers from the start codon to the stop codon, subcloned into pET-15b(+) by NcoI and XhoI; also called rWT; rWT recoverin; source: E. coli pET15b rec/pBB131/BL21(DE3)RILLC+, purified (phenyl-Sepharose, Toyopearl SuperQ-650M)) MGNSKSGALSKEILEELQLNTKFSEEELCSWYQSFLKDCPTGRITQQQFQSIYAKFFPDTDPKAYAQHVFRSFDSNLDGTLDFKEYVIALHMTTAGKTNQKLEWAFSLYDVDGNGTISKNEVLEIVMAIFKMITPEDVKLLPDDENTPEKRAEKIWKYFGKNDDDKLTEKEFIEGTLANKEILRLIQFEPQKVKEKMKNA",33.1 ± 1.1,66.9 ± 1.1,30.9 ± 0.4,15.5 ± 0.6,21.55 ± 0.09,32 ± 1.1,31.55 ± 0.09,68.45 ± 0.09
"human recoverin mutant K119A (natural protein, UniProt P35243 1-200, looked up, myristoylated (fraction of non-myristoylated forms did not exceed 16%), recoverin, human, UniProt P35243, C-terminal 'gray' cluster mutant; Parent construct as m1; source: E. coli, expressed and purified similarly to the rWT protein (phenyl-Sepharose, Toyopearl SuperQ-650M)) MGNSKSGALSKEILEELQLNTKFSEEELCSWYQSFLKDCPTGRITQQQFQSIYAKFFPDTDPKAYAQHVFRSFDSNLDGTLDFKEYVIALHMTTAGKTNQKLEWAFSLYDVDGNGTISANEVLEIVMAIFKMITPEDVKLLPDDENTPEKRAEKIWKYFGKNDDDKLTEKEFIEGTLANKEILRLIQFEPQKVKEKMKNA",36.7 ± 0.8,63.3 ± 0.8,24.4 ± 0.6,19.5 ± 0.4,31.38 ± 0.05,24.7 ± 0.2,46.4 ± 5,53.6 ± 5
"human recoverin mutant E169A (natural protein, UniProt P35243 1-200, looked up, myristoylated (fraction of non-myristoylated forms did not exceed 16%), recoverin, human, UniProt P35243, C-terminal 'black' cluster mutant; Parent construct as m1; source: E. coli, expressed and purified similarly to the rWT protein (phenyl-Sepharose, Toyopearl SuperQ-650M)) MGNSKSGALSKEILEELQLNTKFSEEELCSWYQSFLKDCPTGRITQQQFQSIYAKFFPDTDPKAYAQHVFRSFDSNLDGTLDFKEYVIALHMTTAGKTNQKLEWAFSLYDVDGNGTISKNEVLEIVMAIFKMITPEDVKLLPDDENTPEKRAEKIWKYFGKNDDDKLTAKEFIEGTLANKEILRLIQFEPQKVKEKMKNA",38.9 ± 1.2,61.1 ± 1.2,27 ± 0.3,16.1 ± 1.5,27.2 ± 0.9,29.6 ± 0.3,33.7 ± 0.5,66.3 ± 0.5
"human recoverin mutant W156A (natural protein, UniProt P35243 1-200, looked up, myristoylated (fraction of non-myristoylated forms did not exceed 16%), recoverin, human, UniProt P35243, C-terminal 'gray' cluster mutant; Parent construct as m1; source: E. coli, expressed and purified similarly to the rWT protein (phenyl-Sepharose, Toyopearl SuperQ-650M)) MGNSKSGALSKEILEELQLNTKFSEEELCSWYQSFLKDCPTGRITQQQFQSIYAKFFPDTDPKAYAQHVFRSFDSNLDGTLDFKEYVIALHMTTAGKTNQKLEWAFSLYDVDGNGTISKNEVLEIVMAIFKMITPEDVKLLPDDENTPEKRAEKIAKYFGKNDDDKLTEKEFIEGTLANKEILRLIQFEPQKVKEKMKNA",35.4 ± 0.8,64.6 ± 0.8,25 ± 1.1,20.4 ± 0.7,29.8 ± 0.9,24.8 ± 1,36.8 ± 0.2,63.2 ± 0.2
"human recoverin mutant F106A (natural protein, UniProt P35243 1-200, looked up, myristoylated (fraction of non-myristoylated forms did not exceed 16%), recoverin, human, UniProt P35243, C-terminal 'black' cluster mutant; Parent construct as m1; source: E. coli, expressed and purified similarly to the rWT protein (phenyl-Sepharose, Toyopearl SuperQ-650M)) MGNSKSGALSKEILEELQLNTKFSEEELCSWYQSFLKDCPTGRITQQQFQSIYAKFFPDTDPKAYAQHVFRSFDSNLDGTLDFKEYVIALHMTTAGKTNQKLEWAASLYDVDGNGTISKNEVLEIVMAIFKMITPEDVKLLPDDENTPEKRAEKIWKYFGKNDDDKLTEKEFIEGTLANKEILRLIQFEPQKVKEKMKNA",38 ± 0.3,62 ± 0.3,27.11 ± 0.08,17.9 ± 2.1,25 ± 0.8,30 ± 1.4,35.4 ± 1,64.6 ± 1
"human recoverin mutant F70A (natural protein, UniProt P35243 1-200, looked up, myristoylated (fraction of non-myristoylated forms did not exceed 16%), recoverin, human, UniProt P35243, N-terminal 'gray' cluster mutant; Parent construct as m1; source: E. coli, expressed and purified similarly to the rWT protein (phenyl-Sepharose, Toyopearl SuperQ-650M)) MGNSKSGALSKEILEELQLNTKFSEEELCSWYQSFLKDCPTGRITQQQFQSIYAKFFPDTDPKAYAQHVARSFDSNLDGTLDFKEYVIALHMTTAGKTNQKLEWAFSLYDVDGNGTISKNEVLEIVMAIFKMITPEDVKLLPDDENTPEKRAEKIWKYFGKNDDDKLTEKEFIEGTLANKEILRLIQFEPQKVKEKMKNA",29.3 ± 1.7,70.7 ± 1.7,29.3 ± 1.1,40.1 ± 1.8,11.4 ± 0.2,19.1 ± 0.5,26.9 ± 0.9,73.1 ± 0.9
"human recoverin mutant F35A (natural protein, UniProt P35243 1-200, looked up, myristoylated (fraction of non-myristoylated forms did not exceed 16%), recoverin, human, UniProt P35243, N-terminal 'black' cluster mutant; Parent construct as m1; source: E. coli, expressed and purified similarly to the rWT protein (phenyl-Sepharose, Toyopearl SuperQ-650M)) MGNSKSGALSKEILEELQLNTKFSEEELCSWYQSALKDCPTGRITQQQFQSIYAKFFPDTDPKAYAQHVFRSFDSNLDGTLDFKEYVIALHMTTAGKTNQKLEWAFSLYDVDGNGTISKNEVLEIVMAIFKMITPEDVKLLPDDENTPEKRAEKIWKYFGKNDDDKLTEKEFIEGTLANKEILRLIQFEPQKVKEKMKNA",37.2 ± 0.5,62.8 ± 0.5,31.7 ± 0.3,37.4 ± 3.6,13.2 ± 3.3,17.78 ± 0.07,30.9 ± 1.9,69.1 ± 1.9
"human recoverin mutant V122A (natural protein, UniProt P35243 1-200, looked up, myristoylated (fraction of non-myristoylated forms did not exceed 16%), recoverin, human, UniProt P35243, C-terminal 'gray' cluster mutant; Parent construct as m1; source: E. coli, expressed and purified similarly to the rWT protein (phenyl-Sepharose, Toyopearl SuperQ-650M)) MGNSKSGALSKEILEELQLNTKFSEEELCSWYQSFLKDCPTGRITQQQFQSIYAKFFPDTDPKAYAQHVFRSFDSNLDGTLDFKEYVIALHMTTAGKTNQKLEWAFSLYDVDGNGTISKNEALEIVMAIFKMITPEDVKLLPDDENTPEKRAEKIWKYFGKNDDDKLTEKEFIEGTLANKEILRLIQFEPQKVKEKMKNA",27 ± 1.2,73 ± 1.2,27.1 ± 1.3,15.8 ± 0.2,26.7 ± 2.1,30.3 ± 0.6,35.3 ± 0.9,64.7 ± 0.9
"human recoverin mutant Q46A (natural protein, UniProt P35243 1-200, looked up, myristoylated (fraction of non-myristoylated forms did not exceed 16%), recoverin, human, UniProt P35243, N-terminal 'gray' cluster mutant; Parent construct as m1; source: E. coli, expressed and purified similarly to the rWT protein (phenyl-Sepharose, Toyopearl SuperQ-650M)) MGNSKSGALSKEILEELQLNTKFSEEELCSWYQSFLKDCPTGRITAQQFQSIYAKFFPDTDPKAYAQHVFRSFDSNLDGTLDFKEYVIALHMTTAGKTNQKLEWAFSLYDVDGNGTISKNEVLEIVMAIFKMITPEDVKLLPDDENTPEKRAEKIWKYFGKNDDDKLTEKEFIEGTLANKEILRLIQFEPQKVKEKMKNA",35.1 ± 1.8,64.9 ± 1.8,27.3 ± 1.5,31.9 ± 1.9,18.4 ± 0.6,22.3 ± 1,30.2 ± 0.5,69.8 ± 0.5
"human recoverin mutant F49A (natural protein, UniProt P35243 1-200, looked up, myristoylated (fraction of non-myristoylated forms did not exceed 16%), recoverin, human, UniProt P35243, N-terminal 'gray' cluster mutant; Parent construct as m1; source: E. coli, expressed and purified similarly to the rWT protein (phenyl-Sepharose, Toyopearl SuperQ-650M)) MGNSKSGALSKEILEELQLNTKFSEEELCSWYQSFLKDCPTGRITQQQAQSIYAKFFPDTDPKAYAQHVFRSFDSNLDGTLDFKEYVIALHMTTAGKTNQKLEWAFSLYDVDGNGTISKNEVLEIVMAIFKMITPEDVKLLPDDENTPEKRAEKIWKYFGKNDDDKLTEKEFIEGTLANKEILRLIQFEPQKVKEKMKNA",36.7 ± 1,63.3 ± 1,25.5 ± 0.5,30.6 ± 1.6,21.08 ± 0.09,22.8 ± 1.3,32.1 ± 0.5,67.9 ± 0.5
"human recoverin mutant F83A (natural protein, UniProt P35243 1-200, looked up, myristoylated (fraction of non-myristoylated forms did not exceed 16%), recoverin, human, UniProt P35243, N-terminal 'black' cluster mutant; Parent construct as m1; source: E. coli, expressed and purified similarly to the rWT protein (phenyl-Sepharose, Toyopearl SuperQ-650M)) MGNSKSGALSKEILEELQLNTKFSEEELCSWYQSFLKDCPTGRITQQQFQSIYAKFFPDTDPKAYAQHVFRSFDSNLDGTLDAKEYVIALHMTTAGKTNQKLEWAFSLYDVDGNGTISKNEVLEIVMAIFKMITPEDVKLLPDDENTPEKRAEKIWKYFGKNDDDKLTEKEFIEGTLANKEILRLIQFEPQKVKEKMKNA",35.6 ± 0.8,64.4 ± 0.8,28.7 ± 0.8,38.4 ± 1.4,13.2 ± 0.3,19.7 ± 0.4,33.8 ± 1,66.2 ± 1
"human recoverin mutant F172A (natural protein, UniProt P35243 1-200, looked up, myristoylated (fraction of non-myristoylated forms did not exceed 16%), recoverin, human, UniProt P35243, C-terminal 'black' cluster mutant; Parent construct as m1; source: E. coli, expressed and purified similarly to the rWT protein (phenyl-Sepharose, Toyopearl SuperQ-650M)) MGNSKSGALSKEILEELQLNTKFSEEELCSWYQSFLKDCPTGRITQQQFQSIYAKFFPDTDPKAYAQHVFRSFDSNLDGTLDFKEYVIALHMTTAGKTNQKLEWAFSLYDVDGNGTISKNEVLEIVMAIFKMITPEDVKLLPDDENTPEKRAEKIWKYFGKNDDDKLTEKEAIEGTLANKEILRLIQFEPQKVKEKMKNA",33.6 ± 2,66.4 ± 2,29.3 ± 0.2,22 ± 0.9,20 ± 0.3,28.8 ± 0.8,36.6 ± 0.7,63.4 ± 0.7
